The chains are these.
B1: SC03-051 (scFv)
scFv: AMAQVQLVQSGTEVKKPGESLKISCKGSGYGFITYWIGWVRQMPGKGLEWMGIIYPGDSETRYSPSFQGQVTISADKSINTAYLQWSSLKASDTAIYYCAGGSGISTPMDVWGQGTTVTVSSGTGGSGGTGSGTGGSTDIQMTQSPDSLAVSLGERATINCKSGQSILYSSNDKNYLAWYQQKPGQPPKLLIYWASTRESGVPDRFSGSGSGTDFTLTISSLQAEDVAVYYCQQYYSTPYTFGQGTKVEIKRAA
B2: SC03-036 (scFv)
scFv: AMAEVQLVQSGTEVKKPGESLKISCKGSGYGFITYWIGWVRQMPGKGLEWMGIIYPGDSETRYSPSFQGQVTISADKSINTAYLQWSSLKASDTAIYYCAGGSGISTPMDVWGQGTTVTVSSGTGGSGGTGSGTGGSTDIQMTQSPDSLAVSLGERATINCKSSQSVLHSPNNKNYLAWYQQKPGQPPKLLIYWASTRESGVPDRFSGSGSGTDFTLTISSLQAEDVAVYYCQQYYSTNSFGQGTKLEIKRAA
B3: SC03-057 (scFv)
scFv: AMAQVQLVQSGAEVKKPGSSVKVSCKASGGTFSRYAISWVRQAPGQGLEWMGRINPILNLTNYAQKFQGRVTITADKSTSTAYMEMSSLRSEDTAIYYCASPDIVVAGHASPPHYTMDVWGQGTTVTVSSGTGGSGGTGSGTGGSTDIQMTQSPSSLSASVGDRVTITCRASQGIRNDLGWYQQKPGKAPNLLIYQASALQSGVPSRFSGSESGAEFTLTISSLHPDDFATYYCQQYHDFPITFGQGTRLEIKRAA
B4: SC03-046 (scFv)
scFv: AMAEVQLVQSGGGLVQPGGSLRLSCAASGFTFSSYAMHWVRQAPGKGLEYVSGISSNGGSTYYANSVKGRFTISRDNSKNTLYLQMGSLRAEDMAVYYCARTTNRAFDIWGQGTMVTVSSGTGGSGGTGSGTGGSTDVVMTQSPDSLAVSLGERATINCKSSQSVLYSSNNKNYLAWYQQKPGQPPKLLIYWASTRESGVPDRFSGSGSGTDFSLTISSLQAEDVAVYYCQQYYSPPYTFGPGTKVEIKRAA
B5: SC03-043 (scFv)
scFv: AMAQVQLVQSGGGLVQPGGSLRLSCAASGFTFSSYAMHWVRQAPGKGLEYVSGISSNGGSTYYANSVKGRFTISRDNSKNTLYLQMGSLRAEDMAVYYCARTTNRAFDIWGQGTMVTVSSGTGGSGGTGSGTGGSTDIQLTQSPDSLAVSLGERATINCKSSQSVLYRSNNKNYLAWYQQKPGQPPKLLIYWASTRESGVSERFSGSGSGTDFTLTISSLQAEDVAVYYCQQYYSTPYSFGQGTKLEIKRAA
B6: SC03-039 (scFv)
scFv: AMAEVQLVESGGGLVQPGGSLRLSCAASGFTFSSYAMSWVRQAPGKGLEWVSVIYSGGTSTYYADSVKGRFTISRDNSKNTLYLQMNSLRAEDTAVYFCAKGSKWNDVGGGDYWGQGTLVTVSSGTGGSGGTGSGTGGSTNFMLTQPHSVSESPGKTVTISCAGSSGSIASNYVQWYQQRPGSAPTTVIYEDNQRPSGVPDRFSGSIDSSSNSASLTISGLKTEDEADYYCQSYDGYLWIFGGGTKLTVLGAA
B7: SC03-055 (scFv)
scFv: AMAQVQLQQWGAGLLKPSETLSLTCAVYGGSFSGFYWSWIRQPPGKGLEWIGEINHSGSTNYNPSLKSRVTISADTSKNQFSLKLSSVTAADTAVYYCARRVEVVEYQLLRPRYKSWFDPWGQGTLVTVSSGTGGSGGTGSGTGGSTQSVLTQPPSVSGAPGQRVSISCSGSGANGGTDPVSWYQKFPGTAPHLLIYDNNKRPSGIPDRFSGSKSGASATLDITGLQTGDEADYYCGAWDPSLSGYVFGTGTQLTVLSAA
B8: SC03-034 (scFv)
scFv: AMAEVQLVQSGAEVKKPGESLKISCKGSGYGFITYWIGWVRQMPGKGLEWMGIIYPGDSETRYSPSFQGQVTISADKSINTAYLQWSSLKASDTAIYYCAGGSGISTPMDVWGQGTTVTVSSGTGGSGGTGSGTGGSTDVVMTQSPDSLAVSLGERATINCKSSQSILNRSNNKNYLAWYQQKPGQPPKLLIYWASTRESGVPDRFSGSGSGTDFNLTISSLQAEDVAVYYCQQYNNWPLTFGGGTKVDIKRAA
B9: SC03-031 (scFv)
scFv: AMAQVQLVQSGADVKKPGSSVKVSCEASGGTFSSYAISWVRQAPGQGLEWMGRIIPILGITNYAQKFQGRVTITADKSTGTGNMELSSLRSEDTAVYYCARESGGGYDNHFDYWGQGTLVTVSSGTGGSGGTGSGTGGSTQSVLTQPPSASGTPGQRVTISCSGGSSNIGSNTVNWYQQLPGTAPKLVIYANNQRPSGVPDRFSASKSGTSASLAISGLQSEDEADYYCAAWDDSLTGGVFGGGTQLTVLSAA
B10: SC03-033 (scFv)
scFv: AMAQVQLVQSGTEVKKPGESLKISCKGSGYGFITYWIGWVRQMPGKGLEWMGIIYPGDSETRYSPSFQGQVTISADKSINTAYLQWSSLKASDTAIYYCAGGSGISTPMDVWGQGTTVTVSSGTGGSGGTGSGTGGSTDVVMTQSPDSLAVSLGERATINCKTSHNIFSRSNNKDYLAWYQQKPGQPPRLLIYWASTRASGVPERFSGSGSGTDFSLTISSLQAEDVAVYYCQQYYSSPMYSFGQGTKVEIKRAA
B11: SC03-040 (scFv)
scFv: AMAQVQLVQSGGGLVQPGGSLRLSCAASGFTFSSYAMHWVRQAPGKGLEYVSGISSNGGSTYYANSVKGRFTISRDNSKNTLYLQMGSLRAEDMAVYYCARTTNRAFDIWGQGTMVTVSSGTGGSGGTGSGTGGSTDIQMTQSPDSLAVSLGERATINCRSSQSVLYSSNNKNYLAWYQQKPGQPPKLLIYWASTRESGVPDRFSGSGSGTDFTLTISSLQAEDVAVYYCQQYYSSPYSFGQGTKLEIKRAA
B12: SC03-044 (scFv)
scFv: AMAEVQLVETGGGLVQPGGSLRLSCAASGFTFSSYAMHWVRQAPGKGLEYVSGISSNGGSTYYANSVKGRFTISRDNSKNTLYLQMGSLRAEDMAVYYCARTTNRAFDIWGQGTMVTVSSGTGGSGGTGSGTGGSTDIQMTQSPDSLAVSLGERATINCKSSQSVLYSSNNKNYLAWYQQKPGQPPKLLIYWASTRESGVPDRFRGSGSGTDFTLTISSLQAEDLAVYYCQQYYSTPYSFGQGTKLEIKRAA
B13: SC03-054 (scFv)
scFv: AMAEVQLVQSGGGVVQPGRSLRLSCAASGFTFSSYAMHWVRQAPGKGLEYVSGISSNGGSTYYANSVKGRFTISRDNSKNTLYLQMGSLRAEDMAVYYCARTTNRAFDIWGQGTMVTVSSGTGGSGGTGSGTGGSTDIQLTQSPDSLAVSLGERATINCKSSQSVLYSSNNKNYLAWYQQKPGQPPKLLIYWASTRESGVPDRFSGGGSGTDFTLTISSLQAEDVAVYYCQQYYSTPYSFGQGTKVEIKRAA
B14: SC03-037 (scFv)
scFv: AMAKVQLVQSGGGLIQPGGSLRLSCAASGFTVSSNYMSWVRQAPGKGLEWVSIVFSGGSTYYADSVKGRFTISRDNSKNTLYLQMNSLRAEDTAVYYCARDAHRGFGMDVWGQGTTVTVSSGTGGSGGTGSGTGGSTSSELTQDPAVSVALGQTVRITCQGDSLRSYYASWYQQKPGQAPVLVIYGKNNRPSGIPDRFSGSSSGNTASLTITGAQAEDEADYYCNGRDSSGNHWVFGGGTKLTVLGAA
B15: SC03-038 (scFv)
scFv: AMAEVQLVQSGGGLIQPGGSLRLSCAASGFTVSSNYMSWVRQAPGKGLEWVSIVFSGGSTYYADSVKGRFTISRDNSKNTLYLQMNSLRAEDTAVYYCARDAHRGFGMDVWGQGTTVTVSSGTGGSGGTGSGTGGSTSSELTQDPAVSVALGQTVRITCQGDSLRSYYASWYQQKPGQAPVLVIYGKNNRPSGIPDRFSGSSSGDTASLTITGAQAEDEADYYCNSRDSSGNHWVFGGGTKLTVLGAA
B16: SC03-024 (scFv)
scFv: AMAQVQLVESGSELKIPGASVKVSCKATGYTFTRYSLNWVRQAPGQGLEWVGWINTQTGNSNYGQAFSGRFVFSLDTSVSTAYLQISSLQAEDTATYYCARKSAGSNAFDIWGQGTMVTVSSGTGGSGGTGSGTGGSTQSVVTQPPSVSAAPGQKATISCSGSSSNIGNNYVSWYQQLPGTAPKLLIYDNNKRPSGIPNRFSGSKSGTSATLGITGLQTGDEADYYCGTWDSSLSAYVFGTGTKVTVLGAA
B17: SC03-020 (scFv)
scFv: AMAEVQLVQSGSEVKKPGESLKISCKGSGYGFITYWIGWVRQMPGKGLEWMGIIYPGDSETRYSPSFQGQVTISADKSINTAYLQWSSLKASDTAIYYCAGGSGISTPMDVWGQGTTVTVSSGTGGSGGTGSGTGGSTDIQMTQSPDSLAVSLGERATINCKSSQKILHSSNNKNYLAWYQQKPGQPPKLLIYWASTRESGVPDRFSGSGSGTDFTLTISSLQAEDVAVYYCQQYYSTPPVFGGGTKVEIKRAA
B18: SC03-021 (scFv)
scFv: AMAQVQLVQSGTEVKKPGESLKISCKGSGYGFITYWIGWVRQMPGKGLEWMGIIYPGDSETRYSPSFQGQVTISADKSINTAYLQWSSLKASDTAIYYCAGGSGISTPMDVWGQGTTVTVSSGTGGSGGTGSGTGGSTDVVMTQSPDSLAVSLGERATINCKSSQSVLHSSNNKNYLAWYQQKPGQPPKLLIYWASTRQSGVPDRFSGSGSGTDFTLTISSLQAEDVAVYYCQQYYSTPPTFGQGTKVEIKRAA
B19: SC03-023 (scFv)
scFv: AMAQVQLQQWGAGLLKPSETLSLTCAVYGGSFSGFYWSWIRQPPGKGLEWIGEINHSGSTNYNPSLKSRVTISVDTSKNQFSLKLSSVTAADTAVYYCARRVEVVEYQLLRPRYKSWFDPWGQGTLVTVSSGTGGSGGTGSGTGGSTQSALTQPRSVSGSPGQSVTISCTGSSSTVGGYNYVSWYQQHPGKAPKLMIYDVSKRPSGVSNRFSGSKSGNTASLTISGLQAEDEADYYCSSYTSSSTYVFGTGTKVTVLGAA

The target in one assay is UV-inactivated SARS-CoV preparation (Frankfurt 1 strain) (SARS-CoV strain Frankfurt 1). The experiment in a line: phage ELISA, plate 3 (no phage 0.054).
B1: the OD492nm is 0.602 OD492nm.

Regarding B2, the OD492nm is 0.24 OD492nm.

B3 came in with an OD492nm of 1.19 OD492nm.

In the case of B4, the OD492nm amounted to 1.9 OD492nm.

The molecule B5 came in with an OD492nm of 1.27 OD492nm.

B6 displayed an OD492nm of 0.851 OD492nm.

For B7, the OD492nm came out at 0.608 OD492nm.

As for B8, the OD492nm is 0.802 OD492nm.

For a further assay the target is unchanged. The experiment in a line: phage ELISA, plate 4 (no phage 0.051).
B9 came in with an OD492nm of 0.635 OD492nm.

Take B10: the OD492nm came out at 0.288 OD492nm.

Molecule B11 showed an OD492nm of 0.616 OD492nm.

The molecule B12 came in with an OD492nm of 0.518 OD492nm.

In turn, B13 showed an OD492nm of 0.428 OD492nm.

B14 gave an OD492nm of 0.287 OD492nm.

Take B15: the OD492nm was 0.314 OD492nm.

Another assay shares this target. The assay can be described thus: phage ELISA, plate 2 (no phage 0.211). On the technique in general: In an ELISA, binding on a coated surface is turned into a signal by an enzyme label.
B16: the OD492nm worked out at 0.235 OD492nm.

Turning to B17, the OD492nm came to 0.671 OD492nm.

B18 returned an OD492nm of 0.215 OD492nm.

As for B19, the OD492nm is 1.31 OD492nm.

The values above are taken from patent EP1644414B1.
